Assay results from PMC5030355.

Tested on: RIG-I (recombinant)
Test: filter binding
Conditions: 25 mM Tris-HCl pH 7.5, 150 mM NaCl, 1.5 mM MgCl2, room temperature, filter binding with 600 nM BSA, 30 min, pull-down in lysate with 0.5% Triton X-100

polyU/UC RNA 2'FdU gave a Kd (2'-fluoro-deoxyuridine substituted for U) of 29 nM.

polyU/UC RNA canonical was tested, and the Kd was 186 nM.

In the case of polyU/UC RNA m6A, the Kd (N6-methyladenosine substituted for A) is reported as greater than 1070 nM.

polyU/UC RNA pseudouridine showed a Kd (pseudouridine substituted for U) of 255 nM.
